Literature values as cited in publication PMC6600238.

Molecular target: vitronectin (Homo sapiens) (UniProt P04004)
Sequence of UniProt P04004 (P04004 399-478): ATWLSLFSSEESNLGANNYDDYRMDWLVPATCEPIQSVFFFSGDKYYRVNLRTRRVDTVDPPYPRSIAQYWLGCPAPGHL

Substance: uPAR (from UniProt Q03405)
- Kd: 4 µM
